Literature values in article PMC2848394.

Biological target: BMP-2 (Homo sapiens) (UniProt P12643)
Assay: Biacore SPR

Chordin, sequence (Q9H2X0 27-955): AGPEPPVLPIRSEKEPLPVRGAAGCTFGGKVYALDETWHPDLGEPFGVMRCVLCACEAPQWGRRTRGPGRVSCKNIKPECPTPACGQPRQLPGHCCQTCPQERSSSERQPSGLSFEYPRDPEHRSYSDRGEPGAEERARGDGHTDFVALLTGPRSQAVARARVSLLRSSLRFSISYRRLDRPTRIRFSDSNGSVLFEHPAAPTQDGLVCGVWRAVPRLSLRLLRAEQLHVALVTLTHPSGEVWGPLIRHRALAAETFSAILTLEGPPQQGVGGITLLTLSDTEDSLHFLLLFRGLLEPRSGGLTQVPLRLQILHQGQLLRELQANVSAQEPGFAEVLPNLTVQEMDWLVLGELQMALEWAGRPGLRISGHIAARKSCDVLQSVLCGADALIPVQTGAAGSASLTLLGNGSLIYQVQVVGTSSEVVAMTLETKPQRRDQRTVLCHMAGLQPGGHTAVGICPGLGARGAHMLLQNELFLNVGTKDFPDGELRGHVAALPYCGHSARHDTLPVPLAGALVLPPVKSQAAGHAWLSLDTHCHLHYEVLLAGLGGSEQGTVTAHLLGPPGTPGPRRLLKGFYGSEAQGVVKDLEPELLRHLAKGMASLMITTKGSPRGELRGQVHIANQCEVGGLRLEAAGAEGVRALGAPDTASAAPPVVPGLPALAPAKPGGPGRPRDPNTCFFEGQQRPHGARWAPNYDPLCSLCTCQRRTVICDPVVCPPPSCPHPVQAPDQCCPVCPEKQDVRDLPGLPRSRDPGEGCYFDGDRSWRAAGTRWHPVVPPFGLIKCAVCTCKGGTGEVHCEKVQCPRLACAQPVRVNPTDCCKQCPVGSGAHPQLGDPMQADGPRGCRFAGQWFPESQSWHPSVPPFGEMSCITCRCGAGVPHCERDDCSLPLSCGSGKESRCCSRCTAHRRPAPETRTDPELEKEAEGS
BMP-2 (Homo sapiens), sequence (P12643 283-396): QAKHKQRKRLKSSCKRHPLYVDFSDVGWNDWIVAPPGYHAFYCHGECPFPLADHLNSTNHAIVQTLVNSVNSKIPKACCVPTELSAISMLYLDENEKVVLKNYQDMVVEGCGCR

Chordin (from UniProt Q9H2X0)
Kd: 12 nM
